Patent US20040234530A1 (WISCONSIN ALUMNI RESEARCH FOUNDATION, published 2004)

Molecular target: T1, StcE′ E435D-His (as StcE′-His with glutamic to aspartic acid at residue 435; from pTB5, strain WAM2804) (E. coli O157:H7 EDL933 (plasmid pO157), UniProt O82882 36-898)
T1 sequence: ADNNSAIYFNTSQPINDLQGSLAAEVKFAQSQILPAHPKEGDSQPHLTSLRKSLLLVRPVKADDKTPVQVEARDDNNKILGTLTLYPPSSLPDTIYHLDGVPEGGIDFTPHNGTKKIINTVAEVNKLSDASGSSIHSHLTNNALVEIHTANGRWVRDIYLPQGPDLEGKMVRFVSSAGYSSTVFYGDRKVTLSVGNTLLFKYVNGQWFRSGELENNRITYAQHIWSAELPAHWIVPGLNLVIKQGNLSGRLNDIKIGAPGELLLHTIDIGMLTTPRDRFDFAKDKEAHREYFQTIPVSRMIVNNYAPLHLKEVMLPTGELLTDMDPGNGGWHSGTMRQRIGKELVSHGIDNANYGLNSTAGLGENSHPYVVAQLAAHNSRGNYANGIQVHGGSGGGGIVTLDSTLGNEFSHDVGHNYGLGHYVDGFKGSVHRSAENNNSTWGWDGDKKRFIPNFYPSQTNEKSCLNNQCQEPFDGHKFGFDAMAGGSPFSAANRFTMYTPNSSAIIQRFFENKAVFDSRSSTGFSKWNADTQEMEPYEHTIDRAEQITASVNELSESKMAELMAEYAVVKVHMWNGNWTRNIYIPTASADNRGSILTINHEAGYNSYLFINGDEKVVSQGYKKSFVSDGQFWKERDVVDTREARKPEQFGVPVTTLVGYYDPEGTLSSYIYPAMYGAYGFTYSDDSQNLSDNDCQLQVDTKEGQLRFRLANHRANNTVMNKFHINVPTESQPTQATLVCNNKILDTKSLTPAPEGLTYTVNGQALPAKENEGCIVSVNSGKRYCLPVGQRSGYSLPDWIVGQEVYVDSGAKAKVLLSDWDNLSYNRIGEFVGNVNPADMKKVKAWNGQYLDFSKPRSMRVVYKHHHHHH

B1: C1-esterase inhibitor (human plasma protease C1 inhibitor), purified or in human serum (other, UniProt P05155 23-500, looked up)
chain: NPNATSSSSQDPESLQDRGEGKVATTVISKMLFVEPILEVSSLPTTNSTTNSATKITANTTDEPTTQPTTEPTTQPTIQPTQPTTQLPTDSPTQPTTGSFCPGPVTLCSDLESHSTEAVLGDALVDFSLKLYHAFSAMKKVETNMAFSPFSIASLLTQVLLGAGENTKTNLESILSYPKDFTCVHQALKGFTTKGVTSVSQIFHSPDLAIRDTFVNASRTLYSSSPRVLSNNSDANLELINTWVAKNTNNKISRLLDSLPSDTRLVLLNAIYLSAKWKTTFDPKKTRMEPFHFKNSVIKVPMMNSKKYPVAHFIDQTLKAKVGQLQLSHNLSLVILVPQNLKHRLEDMEQALSPSVFKAIMEKLEMSKFQPTLLTLPRIKVTTSQDMLSIMEKLEFFDFSYDLNLCGLTEDPDLQVSAMQHQTVLELTETGVEAAAASAISVARTLLVFEVQQPFLFVLWDQQHKFPVFMGRVYDPRA
modifications: heavily glycosylated N-terminal domain
Q: How did the “fold level of C1-INH on erythrocyte surfaces against that in the presence of StcE′-His” value turn out when B1 was run?
A: 22 fold
